B1: RNA polymerase sigma factor RpoH (Escherichia coli (strain K12)), P0AGB3 (parent)
chain: MTDKMQSLALAPVGNLDSYIRAANAWPMLSADEERALAEKLHYHGDLEAAKTLILSHLRFVVHIARNYAGYGLPQADLIQEGNIGLMKAVRRFNPEVGVRLVSFAVHWIKAEIHEYVLRNWRIVKVATTKAQRKLFFNLRKTKQRLGWFNQDEVEMVARELGVTSKDVREMESRMAAQDMTFDLSSDDDSDSQPMAPVLYLQDKSSNFADGIEDDNWEEQAANRLTDAMQGLDERSQDIIRARWLDEDNKSTLQELADRYGVSAERVRQLEKNAMKKLRAAIEA
partner: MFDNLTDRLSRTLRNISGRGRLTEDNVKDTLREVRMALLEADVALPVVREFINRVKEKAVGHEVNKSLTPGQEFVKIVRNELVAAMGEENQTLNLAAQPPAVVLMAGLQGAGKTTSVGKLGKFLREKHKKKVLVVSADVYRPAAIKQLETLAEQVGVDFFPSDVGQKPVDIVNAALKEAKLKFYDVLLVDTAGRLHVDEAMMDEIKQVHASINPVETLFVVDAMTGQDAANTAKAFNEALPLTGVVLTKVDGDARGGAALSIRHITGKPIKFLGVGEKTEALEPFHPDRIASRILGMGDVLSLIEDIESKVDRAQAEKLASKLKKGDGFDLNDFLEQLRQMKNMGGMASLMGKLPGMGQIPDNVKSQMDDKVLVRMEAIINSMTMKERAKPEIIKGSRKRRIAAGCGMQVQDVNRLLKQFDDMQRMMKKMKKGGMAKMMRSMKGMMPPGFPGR

Variants of: B1
Conditions: with srp54_ecoli ffh

| effect of a mutation on the interaction | Variant |
| --- | --- |
| decreasing interaction strength | MTDKMQSLALAPVGNLDSYIRAANAWPMLSADEERALAEKLHYHGDLEAAKTLNLSHLRFVVHIARNYAGYGLPQADLIQEGNIGLMKAVRRFNPEVGVRLVSFAVHWIKAEIHEYVLRNWRIVKVATTKAQRKLFFNLRKTKQRLGWFNQDEVEMVARELGVTSKDVREMESRMAAQDMTFDLSSDDDSDSQPMAPVLYLQDKSSNFADGIEDDNWEEQAANRLTDAMQGLDERSQDIIRARWLDEDNKSTLQELADRYGVSAERVRQLEKNAMKKLRAAIEA [I54N] |

From IntAct's records for PubMed 24358019
